According to paper PMC5786021, “A dynamic allosteric pathway underlies Rad50 ABC ATPase function in DNA repair” (Scientific Reports, 2018):

What was measured:
Test in all cases: reconstitution and co-purification by ion-exchange chromatography; Rad50^NBD mixed with a slight excess of Mre11^HLH, heated at 60 °C for 10 min, cooled, complex purified on a HiTrap SP HP column; complex then used for methyl-TROSY NMR at 50 °C
Conditions in all cases: both partners purified
[1] = biological target: T1, P. furiosus Rad50^NBD (V160M) (P. furiosus, UniProt P58301 1-195; P58301 709-882, V160M)
T1 construct: Rad50, Pyrococcus furiosus, N-terminal ABC-ATPase sub-domain, residues 1-195; flexible linker that replaces the coiled-coil and Zn-hook; Rad50, Pyrococcus furiosus, C-terminal ABC-ATPase sub-domain, residues 709-882; Point mutation made by Quikchange in the Rad50^NBD construct; source: E. coli BL21(DE3) C41, purified (HisTrap, HiTrap SP, Superdex 200)
T1 sequence (P58301 other isoform, or with tags, fused parts or gaps V160M | V160M | V160M V160M): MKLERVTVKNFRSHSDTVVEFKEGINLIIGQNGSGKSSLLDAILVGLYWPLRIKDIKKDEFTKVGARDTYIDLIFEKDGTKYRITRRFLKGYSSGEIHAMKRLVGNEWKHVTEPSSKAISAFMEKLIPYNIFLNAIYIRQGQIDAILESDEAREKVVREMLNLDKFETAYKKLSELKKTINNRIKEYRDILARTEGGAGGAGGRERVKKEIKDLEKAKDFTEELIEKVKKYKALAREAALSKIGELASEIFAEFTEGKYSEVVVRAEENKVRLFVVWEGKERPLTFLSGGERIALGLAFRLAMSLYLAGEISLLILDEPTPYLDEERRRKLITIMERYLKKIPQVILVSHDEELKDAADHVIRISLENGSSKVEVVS

[2] = biological target: T2, P. furiosus Rad50^NBD (V156M) (P. furiosus, UniProt P58301 1-195; P58301 709-882, V156M)
T2 construct: Rad50, Pyrococcus furiosus, N-terminal ABC-ATPase sub-domain, residues 1-195; flexible linker that replaces the coiled-coil and Zn-hook; Rad50, Pyrococcus furiosus, C-terminal ABC-ATPase sub-domain, residues 709-882; Point mutation made by Quikchange in the Rad50^NBD construct; source: E. coli BL21(DE3) C41, purified (HisTrap, HiTrap SP, Superdex 200)
T2 sequence (P58301 other isoform, or with tags, fused parts or gaps V156M | V156M | V156M V156M): as the sequence (P58301 other isoform, or with tags, fused parts or gaps V160M | V160M | V160M V160M) above, with V156M, M160V counted along it

[3] = biological target: T3, P. furiosus Rad50^NBD (V157M) (P. furiosus, UniProt P58301 1-195; P58301 709-882, V157M)
T3 construct: Rad50, Pyrococcus furiosus, N-terminal ABC-ATPase sub-domain, residues 1-195; flexible linker that replaces the coiled-coil and Zn-hook; Rad50, Pyrococcus furiosus, C-terminal ABC-ATPase sub-domain, residues 709-882; Point mutation made by Quikchange in the Rad50^NBD construct; source: E. coli BL21(DE3) C41, purified (HisTrap, HiTrap SP, Superdex 200)
T3 sequence (P58301 other isoform, or with tags, fused parts or gaps V157M | V157M | V157M V157M): as the sequence (P58301 other isoform, or with tags, fused parts or gaps V160M | V160M | V160M V160M) above, with V157M, M160V counted along it

[4] = biological target: T4, P. furiosus Rad50^NBD (R805E) (P. furiosus, UniProt P58301 1-195; P58301 709-882, R805E)
T4 construct: Rad50, Pyrococcus furiosus, N-terminal ABC-ATPase sub-domain, residues 1-195; flexible linker that replaces the coiled-coil and Zn-hook; Rad50, Pyrococcus furiosus, C-terminal ABC-ATPase sub-domain, residues 709-882; Point mutation made by Quikchange in the Rad50^NBD construct; also called basic switch mutant; source: E. coli BL21(DE3) C41, purified (HisTrap, HiTrap SP, Superdex 200)
T4 sequence (P58301 other isoform, or with tags, fused parts or gaps R805E | R805E | R805E R805E): as the sequence (P58301 other isoform, or with tags, fused parts or gaps V160M | V160M | V160M V160M) above, with M160V, R300E counted along it

Measured: binding result

B1: P. furiosus Mre11 helix-loop-helix domain (Mre11^HLH, aa344-426) (domain or fragment)
chain: not shown
notes: Mre11, Pyrococcus furiosus, helix-loop-helix domain, residues 344-426, sub-cloned from codon optimized full-length Pf Mre11; Protonated (unlabelled) in the NMR samples; source: E. coli BL21(DE3) C41, purified (HisTrap, HiTrap Phenyl HP); not shown: NusA, N-terminal, cleaved; His6, N-terminal, cleaved
binds: all assays above
